Measured values taken from patent US20240043478A1.
Each block holds one binder with its values, some of them ahead of it.

Columns and labels:
[1] = target: human polyclonal IgG (available from Japan Blood Products Organization) (human); assay: elution ratio at pH 4.0 relative to PN-621
[2] = target: human polyclonal IgG (available from Japan Blood Products Organization) (human); assay: dynamic binding, 3 mg/mL IgG, 10% breakthrough, 5 min retention
[3] = target: human polyclonal IgG (available from Japan Blood Products Organization) (human); assay: immobilised on agarose gel; IgG eluted at pH 4.0 as % of pH 4.0 + pH 2.8 eluates

- Elution Ratio, relative ratio with respect to PN-621 [1]: 1.79
- Binding Amount of IgG [2]: 69 mg/mL gel
- Elution Ratio (%) under Weakly Acidic Conditions [3]: 82.9%
B1: PN-621 Variant, five sequences α10 and one sequence β10 (designed binder)
chain: ADNIFNEELQHAFYLILHLPNLTEEQRNAFIQSLRDDPSVVAEILAEARRLNDAQAPRADNIFNEELQHAFYLILHLPNLTEEQRNAFIQSLRDDPSVVAEILAEARRLNDAQAPRADNIFNEELQHAFYLILHLPNLTEEQRNAFIQSLRDDPSVVAEILAEARRLNDAQAPRADNIFNEELQHAFYLILHLPNLTEEQRNAFIQSLRDDPSVVAEILAEARRLNDAQAPRADNIFNEELQHAFYLILHLPNLTEEQRNAFIQSLRDDPSVVAEILAEARRLNDAQAPRADNIFNEELQHAFYLILHLPNLTEEQRNAFIQSLRDDPSKVKKILKEAKKLNKAQAPK

- Elution Ratio, relative ratio with respect to PN-621 [1]: 1.63
- Binding Amount of IgG [2]: 66 mg/mL gel
- Elution Ratio (%) under Weakly Acidic Conditions [3]: 75.7%
B2: PN-621 Variant, five sequences α8 and one sequence β8 (designed binder)
chain: ADNIFNREVQAAFYHILHLPNLTEEQRNAFIQSLRDDPSVVAEILAEARRLNDAQAPRADNIFNREVQAAFYHILHLPNLTEEQRNAFIQSLRDDPSVVAEILAEARRLNDAQAPRADNIFNREVQAAFYHILHLPNLTEEQRNAFIQSLRDDPSVVAEILAEARRLNDAQAPRADNIFNREVQAAFYHILHLPNLTEEQRNAFIQSLRDDPSVVAEILAEARRLNDAQAPRADNIFNREVQAAFYHILHLPNLTEEQRNAFIQSLRDDPSVVAEILAEARRLNDAQAPRADNIFNREVQAAFYHILHLPNLTEEQRNAFIQSLRDDPSKVKKILKEAKKLNKAQAPK
